From the nanobody polyreactivity screen of Harvey et al. (2022) come the findings set out here.

The data set in a line: yeast display, Sf9 membrane polyspecificity reagent, FACS + sequencing; frameworks hold sequencing errors. In outline:
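Nanobodies from a synthetic yeast display library (Saccharomyces cerevisiae BJ5465), induced 36–48 hours with galactose, were stained 1 hour at 4 °C with 10% biotinylated, detergent-solubilized Sf9 membrane reagent, enriched on streptavidin microbeads, then FACS-sorted. Anti-HA (expression) and streptavidin (reagent binding) fluorescence set low and high (top ~1%) gates. Polyreactivity labels come from the gate of origin. Genes were colony-PCR amplified, MiSeq 2 × 250 sequenced and filtered by CDR length.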
On to “QVQLVESGGGLVQAGGSLRLSCAASGFTFAGYAMGWYRQAPGKERELVAGIRSSGARTYYADTVKGRFTISRDNAKNTVYFQLKSLKPDDTAVYYCAKTDGFYGGYGYWGQGTQVTVSS”, for which the “polyreactivity (PSR sort gate)” value was “low polyreactivity”. The result for “QVQLVESGGGLVQAGGSLRLSCAASGYTFSVNAMGWYRQAPGKESELVATITSSGGGTYYADSVKGRFTISRDNAKNTVYLQMNSLKPEDTAVYYCAADGYWYGDIYPSDYRWYDYWGQGTQVTVSS” reads “low polyreactivity”.

“QVQLEESGGGLVQAGGSIRLSCAASGRTIVYNAMGWYRQAPGNERELVDAIDGGGDRTYYADSVKGRFTISRDNAKITVYLQMNRLKPEDTAVYYCARDPGDTYYYSYPEGDYWGQGTQVSVSS”: the “polyreactivity (PSR sort gate)” value is listed as “low polyreactivity”. The result for “QVQLVESGGGLVQAGGSLRLSCEDSGFIFRVYAMGWYLQAPGKERELVAAINSGGSTNYADSVKGRFTISRDNAKNTVYLQMNSLKPEDTAVYYCAARVKTSYRYLRTYNYCGQGTQVTVSS” reads “high polyreactivity”; that for “QVQLVESGGGLVHAGGSLRLSCAASGSTFTPNAMGWYRQAPRKERDLVAAIRGLNGRTYYADSVKGRITISRDNAKNTVYLQMNSLKPEDTAVYYCAAGGYSNYFAWHDYWGQCTQVTVSS”, “low polyreactivity”.

Take “QVQLVESGGGLVQAGGSLRLSCAASGSTFGWYAMGWYRQAPGKERELVAAISYIGGSTYADSVKGRFTISRDNAKNTVYLQMKSLKPEDTAVYYCNAVVYGKSYGSRIYDYWGQGTQVTVSS”: the “polyreactivity (PSR sort gate)” value was “high polyreactivity”. With “QVQLVESGGGLVQAGGSLRLSCAASGNIIRSYMGWYRQAPGKERELVASISRRGGSTYYADSVKGRFTISRDNAKNTVYLHMNSLKPEDTAVYYCARRWSWVNGVFGYYWGQGTQVSVSS”, the “polyreactivity (PSR sort gate)” value was “high polyreactivity”. The result for “QVQLQESGGGLVQAGGSLLSCAASGTISWVDEMGWYLQAPGNERELVAGIAGGGNTNYADSVKGRFTISRDNAKNTVYLQMNSLDTAVYYCAVVGFGRGTHIYWGQGTQVTVSS” reads “high polyreactivity”; that for “QVQHVESGGGLVQAGGSLRLSCAASGRIFVYYALGWYRQAPGKERELVASISYSGASTYYADSVKGRFTISRDNAKNTVYLQMNSLKPEDTAVYYCNTDGDDFFHVIYDYWGQGTQVTVSS”, “low polyreactivity”. On to “QVQLVESGGGLVQAGGSLRLSCAASGSIFYYNAMGWYRQAPGKERELVATITQSGGGRTYYADSVKGRFTISRDNAKNTVYLQMNSLKPEDTAVYYCAAKPDKYKSYRYGYWGQGTQVTVSS”, for which the “polyreactivity (PSR sort gate)” value was “low polyreactivity”.

Regarding “QVQLVESGGGLVQAGGSLRLSCAASGFIFSYYAMGWYRQAPGKERELVAAISRSGGSTYYADSVKGRFTISRDNAKNTVYLQMNSLKPEDTAVYYCAARYWRRYGQGYRYDYWGQGTQVTVSS”, the “polyreactivity (PSR sort gate)” value is recorded as “high polyreactivity”. The result for “QVQLVESGGGLVQAGGSLRLSCAASGRIFVKNAMGWNRQAPGKESELVAAISASGGSTYYADSVKGRFTISRDNAKNTVDLQMNSLKPEDTAVYYCAARRRAFGSTYNYWGQGTQVTVSS” reads “high polyreactivity”; that for “QVQLVESGGGLVQAGGSLRLSCAASGFTFRWNAMGWYRQAPGKERELVAAITNDDSTYYADSVKGRFTISRDNAKNTVYLQMNSLKPEDTAVYYCNADLTQYDAGFDYWGQGTQVTVSS”, “low polyreactivity”. The result for “QVQLVESGGGLVQAGGSLRLSCAASGFTLRAYAMGWYRQAPGKERELVAAITQRGTGTYYADSVKGRFTISRDNAKKTVFLQMNSLKPEDTAVYYCAAEAPRWSNYYYWGQGTQVSVSS” reads “high polyreactivity”; that for “QVQLVESGGGLDQAGGSLRLSCAASGSIFDSNAMGWYRQAPGKERELVAAISLSGGSTYYADSVKGRFTISRDNAKNTVYLQMNSLKPEDTAVYYCAKDGWYEYYWGQGTQVTVSS”, “low polyreactivity”.

“QVQLVESGGGLVQAGGSLRLSCAASGIIFLQYAMGWYRQAPGKERELVAAITRRGDRTYYADSVKGRFTISRDNAKNTVYLQMNSLKPEDTAVYYCAASYWYRDYYYWGQGTQVTVSS”: the “polyreactivity (PSR sort gate)” value is recorded as “high polyreactivity”.

Take “QVQLVESGGGVVQAGGSLRLSCAASGRNFYSYAMGLYTQAPGKERELVAAISKRGTSTYYADSVKGRFTISRDNAKNTVYLQMNSLKPEDTAVYYCAAVHWRYQYSLRYDYWGQGTQVTVSS”: the “polyreactivity (PSR sort gate)” value is listed as “high polyreactivity”. With “QVQLVESGGGLVQAGGSLRLSCAASGRTFTRYAMGWYRQAPGKERELVASISNGGNTYYADSVKGRFTISRDYAKNTVYLQMNSLKPEDTAVYYCAAKWKNSRPDWRGYWGQGTQVTVSS”, the “polyreactivity (PSR sort gate)” value is listed as “high polyreactivity”. The result for “QVQLVESGGGLVQAGGSLRLSCAASGSTSVPYAMGWYRQAPGKERELVAAITIGGSTNYADSVKGRFTISRDNAKNTVYLQMNSLKPEDTAVYYCNAVLTQYWKLVRYYGVDYWGQGTQVTVSS” reads “low polyreactivity”. The value for “QVQLVESGGGLVQAGGSLRLSCAASGSTFRPYAMGWYRQAPGKERELVAAITFNGDTYADSVKGRFTISRDNAKNTVYLQMNSLKPEDTAVYYCNAESVSSPPYYDYWGQGTQVTVSS” was “high polyreactivity”; that for “QVQLVESGGGLVQAGGSLRLSCAASGSTFLNYALGWYRQAPGKERELVASISYSAGSTYYADSVKGRFTISRDNAKNTVYLQMNSLKPEDTAVYYCAARLARAGYWRRNYYYWGQGTQVTVSS” was “high polyreactivity”. The result for “QVQLVESGGGLVQAGGCLRLSCAASGSSFGYNGMGWYSQAPGKEREVVAAISSGGNTYYGDSVNGRFTISRDNAKNTVYLQMNSLKPEDTAVYYCNADYVASGYDFDEGYWGQGTQVTVST” reads “low polyreactivity”; that for “QVQLVESGAGLVQAGGSLRLSCAASGFTFAKYAMGWYRQAPGKERELVATIRRSDDNTYYADSVKGRFTISRDNAKNTVYLQMNSLKPEDTAVYYCATGYYALYSRKPYKYNYWGQGTQVTVSS”, “high polyreactivity”.

Consider “QVQLVESGGGLVQAGGSLRLSCAASGSTFNKYTMGWYRQAPGKERELVASISSDGSTNYADSVKGRFTISRDNAKNTVYLQMNSLKPEDTAVYYCAADEGTGQASLSSNLYDYWGQGTQVTVSS”, for which the “polyreactivity (PSR sort gate)” value is recorded as “low polyreactivity”. Regarding “QVQLVESGGGLVQAGGSLRLSCAASGFILFPYAMGWYRQAPGKERELVAAIRSDDTTYYADSVKGRFTISRDNAKNTVYLQMNSLKPEDTAVYYCNAARTRWATGYDYWGQGTQVTVSS”, the “polyreactivity (PSR sort gate)” value was “low polyreactivity”. As for “QVQLVESGGGLVQAGGSLRLICAASGRIFGRNAMGWYRQAPGKERELVAVITWRGGSTYYADSVKGRFTISRDNAKNTVYLQMNSLKPEDTAVYYCAADTSRYYLPRYRTDYWGQGTQVTVSS”, the “polyreactivity (PSR sort gate)” value is listed as “high polyreactivity”.

On to “QVQLVESGGGLVQAGGSLRLSCPASGRTFYTNAMGWYRHAPGKERELVAAITRGGSTYYADSVKGRFTISRDNAKNTVYLQMYSLKPEDTAVYYCAAAYASSWRQRVTSEKGYYWGQGTQVTVSS”, for which the “polyreactivity (PSR sort gate)” value is “high polyreactivity”. The value for “QVQLVESGGGLVQAGGSLRLSCAASGSTSYNAMGWYRQAPGKERELVAAISDGGGSTYYADSVKGRFTISRDNAKNTVYLQMISLKPEDTAVYYCAADTITGDGYWAQGTQVTVSS” was “low polyreactivity”; that for “QVQLEESGGGLVQAGGSLRLSCAASGISFDTYAMGRNRPAPGKERELVAAMSSSGSTNYADSVKGRFTISRDNAKKTVYLQMNSLKPEDTADYYCATDYWPGTGGTYDYWGQGTQVTVSS” was “low polyreactivity”; that for “QVQLVESGGGLVQAGGSLRLSCAASGSTFTHNGMGWYRQAPGKETELVASITWSGGSTYYAVSVKGRFTISRDNAKNTVYLQMNSLKPEDNAVYYCASDAKLYITGFDYWGQGTQVTVSS” was “low polyreactivity”. The result for “QVQLVESGGGLVQAGGSLRLSCAASGSIFKKYAMGWYRPAPGKERELVAAITRGTYYADSVKGRFTISRDNAKNTVYLQMNSLKPEDTAVYDCNREYWGRGYYRVRGEYDYWGQGTQVSVSS” reads “low polyreactivity”; that for “QVQLVESGGGLVQAGGSLLLSCAASGSIFSAYAMGWDRQAPGKERQLVAGISKRGGSTYYADSVKGRFTISRDNAKNTVYLQMNSLKPEDTAVYYCNAARYPYARAVTYHYPSYGYWGQGTQVTVSS”, “high polyreactivity”.

As to “QFQLVDSGGGLVHAGGSRSLSCADSGLIFHNNAMGWYRQAPGKEREFVARITRSGGTTYYADSVKGRFTISRDNAKNTVYLQMNSLKPEDTAVYYCAAEQSVSFLVFTGFKFDYWGQGTHVTVSS”, the “polyreactivity (PSR sort gate)” value is “low polyreactivity”. The value for “QVQLVESGGGLVQAGGSLRLSCAASGSIFLYYAMGWYIQATGKERELVATITSGGRTSYADSVKGRFTISRDNAKNTVYLKMNSLKPEDTAVYYCAGRYGWFTPYDYWGQGTQVTVSS” was “high polyreactivity”; that for “QVQLVESGGGLVQAGGSLRLSCAASGLTFASYAMGWYRQAPGKERELVAAISSSGRTYYADSVKGRFTISRDNAKNTVYLQMNSLKPEDTAVYYCATRGLSRYYDYYYWGQGTQVTVSS” was “high polyreactivity”; that for “QVQLVESGGGLVQAGGRLRLSCAHSGIIFFFYAMGWYRQAPGKERELVAAISDDGVSTDYADSVKGRFTISRDNAKNTVYLQMNSLKPEDTAVYYCAAKTERVYPWFSFGYWGQGTQVTVSS” was “low polyreactivity”. As to “QVQLVESGGGLVQAGGSLRLSCAASGRIFNRYVMGWYRQAPGKERELVAAISVRGASTYYADSVKGRFTISRDNAKNTVYLQMNSLKPEDTAVYYCATAGYRLLDYWGEGTQVTVSS”, the “polyreactivity (PSR sort gate)” value is on record as “high polyreactivity”.

As to “QDQLVESGGGLVQAGGSLRLSCAASGSTIDDYARGWYRQAPGKERELVAAITWTSTDTYADSVKGRFTISRDNAKNTVYLQMNCLKPEDTAVYYCATDFIWDTAVTGGPNDWEYDYWGQGTQVTVSS”, the “polyreactivity (PSR sort gate)” value is reported as “low polyreactivity”. The value for “QVQLQESGGGLVQAGGSLCLSCAASGTIFFDGDMGWYRQAPGKEREFVAAINPGGSAYYADSVKGRLPLAAITHTVYLQMISLKPEDTAVYYCAAKLFDVYGYYYWGQGTHVTVSS” was “low polyreactivity”; that for “QVQLVESGGGFVQAGGSLRLSCAASGSIFVKYAMGWYRQAPGTERELVAAISRSGDSTYYADSVKGRFTLSRDNAKNTVYLQMNSLNPEDTAAYSCAAYSGYGGVSMYYWGQGTQVTVSS” was “low polyreactivity”.
